Test [1] addresses T1, hen egg white lysozyme (Gallus gallus (hen egg white), UniProt P00698).
T1 construct: hen egg white lysozyme (HEWL), 14.5 kDa, monomeric; The source is named for ITC (Roche powder); also called HEWL; source: bought: Roche (HEWL lysozyme powder, > 95%)
The test can be described thus: ITC; Malvern PEAQ-ITC; 20 °C; PBS pH 7.4 with 0.005% tween 20; lysozyme in the cell and nanobody titrated (so in the source); nanobody 20 or 30 µM, lysozyme 200 or 300 µM; single site model. The note with it: both partners purified.

The target of test [2] is T1, hen egg white lysozyme. In words: ITC; Malvern PEAQ-ITC; 37 °C; PBS pH 7.4 with 0.005% tween 20; lysozyme in the cell and nanobody titrated (so in the source); single site model. The note with it: both partners purified.
Test [3] addresses T1, hen egg white lysozyme. In words: SPR; Biacore T200; lysozyme amine-coupled (EDC/NHS) to a CM5 chip, max 100 units; nanobody as analyte, multi-cycle kinetics; PBS with 0.01% tween20; 20 °C (row labels of Table 1); Langmuir 1:1 model. The note with it: both partners purified. Background: Surface plasmon resonance follows binding to a sensor surface in real time, without labels.

Test [4] has as its target H04 nanobody. The test can be described thus: SEC-MALS; Superdex-75 10/300, 0.75 ml/min, PBS pH 7.4; Wyatt Helios 18-angle photometer, QELS, Optilab TrEX.
The target of test [5] is T1, hen egg white lysozyme. The test can be described thus: SPR; Biacore T200; lysozyme amine-coupled (EDC/NHS) to a CM5 chip, max 100 units; nanobody as analyte, multi-cycle kinetics; PBS with 0.01% tween20; 20 °C (row labels of Table 1); Langmuir 1:1 model. The note with it: both partners purified. This is another data set of the same source.

T1 sequence (P00698 19-147): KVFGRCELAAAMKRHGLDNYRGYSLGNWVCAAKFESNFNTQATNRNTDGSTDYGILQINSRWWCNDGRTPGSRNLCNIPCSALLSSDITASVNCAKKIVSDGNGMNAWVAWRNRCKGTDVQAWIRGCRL

B1: Cab-Lys3 nanobody (VHH)
VHH: DVQLQASGGGSVQAGGSLRLSCAASGYTIGPYCMGWFRQAPGKEREGVAAINMGGGITYYADSVKGRFTISQDNAKNTVYLLMNSLEPEDTAIYYCAADSTIYASYYECGHGLSTGGYGYDSWGQGTQVTVSS
notes: crystal structure PDB 1XFP named for it (Muyldermans and Lauwereys 1999); CDR3 of 24 residues with an extra disulphide between CDR1 and CDR3; also called WT Cab-Lys3; source: E. coli T7-Express, purified (IMAC, Superdex-75)
Turning to B1, in test [1], the Kd (usually the equilibrium constant for the complex coming apart) was 27 nM and the dH turned out to be 1.6 kcal/mol. In test [2], this molecule came in with an equilibrium dissociation constant (Kd) of 5 nM and a dH of -4.02 kcal/mol. In test [3], the Kd worked out at 5 nM; the koff (commonly the rate constant with which the complex falls apart) came out at 0.0009 s⁻¹; the kon (in general, the rate constant with which the complex forms) was 41000 M⁻¹ s⁻¹.

B2: Cab-Lys3 S105N nanobody (VHH)
VHH: DVQLQASGGGSVQAGGSLRLSCAASGYTIGPYCMGWFRQAPGKEREGVAAINMGGGITYYADSVKGRFTISQDNAKNTVYLLMNSLEPEDTAIYYCAADSTIYANYYECGHGLSTGGYGYDSWGQGTQVTVSS
notes: as the chain of m6 (Cab-Lys3) with S105N in CDR3; source: E. coli T7-Express, purified (IMAC, Superdex-75)
In test [1], B2 displayed a Kd of 125 nM and a dH of 2.6 kcal/mol. In test [2], this molecule registered a Kd of 73 nM and a dH of -3.3 kcal/mol. For the same molecule, in test [3], the Kd amounted to 35 nM, the off-rate (koff) turned out to be 0.0028 s⁻¹ and the kon turned out to be 79000 M⁻¹ s⁻¹.

B3: Cab-Lys3 T101S nanobody (VHH)
VHH: DVQLQASGGGSVQAGGSLRLSCAASGYTIGPYCMGWFRQAPGKEREGVAAINMGGGITYYADSVKGRFTISQDNAKNTVYLLMNSLEPEDTAIYYCAADSSIYASYYECGHGLSTGGYGYDSWGQGTQVTVSS
notes: as the chain of m6 (Cab-Lys3) with T101S in CDR3; source: E. coli T7-Express, purified (IMAC, Superdex-75)
For the molecule B3, in test [1], the affinity, expressed as Kd, was 113 nM and the dH came to 3 kcal/mol. In test [2], this molecule registered an equilibrium dissociation constant (Kd) of 105 nM and a dH of -5.1 kcal/mol. For the same molecule, in test [3], the Kd amounted to 135 nM, the koff came to 0.029 s⁻¹ and the kon was found to be 160000 M⁻¹ s⁻¹.

B4: Phage-B09 nanobody (VHH)
VHH: EVQLQASGGGFVQPGGSLRLSCAASGSTYRRSTMGWFRQAPGKEREFVSAISSDHSHPDYYADSVKGRFTISRDNSKNTVYLQMNSLRAEDTATYYCAFQYDSDKKSYWGQGTQVTVSS
notes: selected by phage display from the NaLi-H1 synthetic library (Hybrigenics); also called P-B09; source: E. coli T7-Express, purified (IMAC, Superdex-75)
On to B4, for which, in test [1], the Kd worked out at 1430 nM and the dH was -14.5 kcal/mol. Further, in test [3], binding was characterised by a dissociation constant (Kd) of 1300 nM, the koff turned out to be 0.6 s⁻¹ and the kon was 450000 M⁻¹ s⁻¹.

B5: H04 nanobody (VHH)
VHH: EVQLLESGGGLVQPGGSLRLSCAASGFRFDAEDMGWVRQAPGKGLEWVSSIYGPSGSTYYADSVKGRFTISRDNSKNTLYLQMNSLRAEDTAVYYCAKYTSPPQNHGFDYWGQGTLVTVSS
notes: crystal structure with lysozyme PDB 4U3X (Rouet et al. 2015); CDR3 of 12 residues; Developed in Daniel Christ's group (Rouet et al. 2015); source: E. coli T7-Express, purified (IMAC, Superdex-75)
In test [1], B5 registered a Kd of 24 nM and a dH of -17.6 kcal/mol. Further, the stoichiometry N (usually the number of molecules, sites or subunits per partner or assembly) in test [4] was determined as 2. In test [3], this molecule yielded a Kd of 19 nM, a koff of 0.0008 s⁻¹ and a kon of 43000 M⁻¹ s⁻¹.

B6: H04 H106A nanobody (VHH)
VHH: EVQLLESGGGLVQPGGSLRLSCAASGFRFDAEDMGWVRQAPGKGLEWVSSIYGPSGSTYYADSVKGRFTISRDNSKNTLYLQMNSLRAEDTAVYYCAKYTSPPQNAGFDYWGQGTLVTVSS
notes: as the chain of m2 (H04) with H106A in CDR3; source: E. coli T7-Express, purified (IMAC, Superdex-75)
In test [5], B6 returned a dissociation constant Kd of approximately 250 nM. For the same molecule, in test [1], the Kd stood at 296 nM and the dH is -17 kcal/mol. In test [3], this molecule displayed a dissociation constant (Kd) of 124 nM, a koff of 0.056 s⁻¹ and a kon of 450000 M⁻¹ s⁻¹.

B7: Phage-F07 nanobody (VHH)
VHH: EVQLQASGGGFVQPGGSLRLSCAASGTSSDLYDMGWFRQAPGKEREFVSAISGDDTQYTYYADSVKGRFTISRDNSKNTVYLQMNSLRAEDTATYYCAPRAHEPHGHWNYYWGQGTQVTVSS
notes: selected by phage display from the NaLi-H1 synthetic library (Hybrigenics); also called P-F07; source: E. coli T7-Express, purified (IMAC, Superdex-75)
In test [1], B7 yielded a Kd of 685 nM and a dH of -23.5 kcal/mol.

Values taken from paper PMC8189969, “Interaction standards for biophysics: anti-lysozyme nanobodies” (European Biophysics Journal, 2021).
